# Patent US20070197430A1, “Conjugates And Therapeutic Uses Thereof” (priority 2004, published 2007)
# Peptide text beside a SMILES is read from it.
# T1: Bcl-w ΔC29 (Homo sapiens, UniProt Q92843)
# T1 sequence (Q92843 1-164 limits assumed): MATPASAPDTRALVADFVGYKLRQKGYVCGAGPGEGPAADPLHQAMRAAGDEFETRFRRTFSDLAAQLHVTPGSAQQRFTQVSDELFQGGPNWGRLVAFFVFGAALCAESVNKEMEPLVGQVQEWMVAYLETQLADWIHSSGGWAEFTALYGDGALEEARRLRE
# How the values were obtained:
# Bcl-w ΔC29 = molecular target: T1, Bcl-w ΔC29; experiment: Alphascreen GST competition assay with biotinylated Bim BH3-26 peptide; assay type: binding; conditions: for binding affinity for Bcl-w ΔC29 compared to the linear 16-mer, in words: Examples 8 and 9; for decrease in binding affinity: relative to linear 16-mer
# [1] = system: pre-B tumor cells from E-mu myc transgenic mice; experiment: Cell viability by propidium iodide exclusion, flow cytometry; assay type: cell-based; conditions: Mus musculus, 24 h, read-out: % viable cells at 24 hours
# Procedure: After 24 hours incubation at 37° C. in 5% CO2, the cells were washed with PBS and 50 μL of 100 μg/mL solution of propidium iodide was added to each well. The cells were analyzed by flow cytometry (BD Facscan) and the viable cells denoted as the percentage of cells excluding propidium iodide.
# [2] = molecular target: GST tagged Bcl w delta C29 protein (UniProt Q92843); experiment: competition assay; competitor: biotinylated Bim BH3 peptide
# [3] = molecular target: GST tagged Bcl w delta C29 protein (UniProt Q92843); experiment: competition assay; compared with the linear 16-mer
molecule,measurement,setting,value
CC[C@H](C)[C@H](NC(C)=O)C(=O)N[C@@H](CCCNC(=N)N)C(=O)N[C@H](C(=O)N[C@@H](C)C(=O)N[C@@H](CCC(N)=O)C(=O)N[C@@H](CCC(=O)O)C(=O)N[C@@H](CC(C)C)C(=O)N[C@@H](CCCNC(=N)N)C(=O)N[C@@H](CCCNC(=N)N)C(=O)N[C@H](C(=O)NCC(=O)N[C@@H](CC(=O)O)C(=O)N[C@@H](CCC(=O)O)C(=O)N[C@@H](Cc1ccccc1)C(=O)N[C@@H](CC(N)=O)C(=O)N[C@@H](C)C(N)=O)[C@@H](C)CC)[C@@H](C)CC [Q] (Ac-IRIAQELRRIGDEFNA-NH2),"binding affinity for Bcl-w ΔC29 compared to the linear 16-mer, in words",Bcl-w ΔC29,drop in binding
"CC[C@H](C)[C@H](NC(=O)[C@H](CCCNC(=N)N)NC(=O)[C@H](CCCNC(=N)N)NC(=O)[C@H](CC(C)C)NC(=O)[C@H](CCC(=O)O)NC(=O)[C@H](CCC(N)=O)NC(=O)[C@H](C)NC(=O)[C@@H](NC(=O)[C@H](Cc1c[nH]c2ccccc12)NC(=O)[C@H](C)NC(C)=O)[C@@H](C)CC)C(=O)NCC(=O)N[C@@H](CC(=O)O)C(=O)N[C@@H](CCC(=O)O)C(=O)N[C@@H](Cc1ccccc1)C(=O)N[C@@H](CC(N)=O)C(=O)N[C@@H](C)C(N)=O [O, Ac-AWIAQELRRJGDEFNA-NH2] (Ac-AWIAQELRRIGDEFNA-NH2)","binding affinity for Bcl-w ΔC29 compared to the linear 16-mer, in words",Bcl-w ΔC29,drop in binding
COc1cc([C@@H]2c3cc4c(cc3[C@@H](O[C@@H]3O[C@@H]5CO[C@@H](C)O[C@H]5[C@H](O)[C@H]3O)[C@H]3COC(=O)[C@H]23)OCO4)cc(OC)c1O [Etoposide],viability at 0.015 µM,[1]; concentration 0.015 μM,80%
same,viability at 0.0312 µM,[1]; concentration 0.0312 μM,50%
same,viability at 0.0625 µM,[1]; concentration 0.0625 μM,21%
same,viability at 0.125 µM,[1]; concentration 0.125 μM,0%
same,viability at 0.25 µM,[1]; concentration 0.25 μM,0%
same,viability at 0.5 µM,[1]; concentration 0.5 μM,0%
same,viability at 1 µM,[1]; concentration 1.0 μM,0%
CC[C@H](C)[C@H](NC(C)=O)C(=O)N[C@@H](Cc1c[nH]c2ccccc12)C(=O)N[C@H](C(=O)N[C@@H](C)C(=O)N[C@@H](CCC(N)=O)C(=O)N[C@@H](CCC(=O)O)C(=O)N[C@@H](CC(C)C)C(=O)N[C@@H](CCCNC(=N)N)C(=O)N[C@@H](CCCNC(=N)N)C(=O)N[C@@H](C)C(=O)NCC(=O)N[C@@H](CC(=O)O)C(=O)N[C@@H](CCC(=O)O)C(=O)N[C@@H](Cc1ccccc1)C(=O)N[C@@H](CC(N)=O)C(=O)N[C@@H](C)C(N)=O)[C@@H](C)CC [Peptide K] (Ac-IWIAQELRRAGDEFNA-NH2),decrease in binding affinity,Bcl-w ΔC29,3 fold
CC[C@H](C)[C@H](NC(C)=O)C(=O)N[C@@H](C)C(=O)N[C@H](C(=O)N[C@@H](C)C(=O)N[C@@H](CCC(N)=O)C(=O)N[C@@H](CCC(=O)O)C(=O)N[C@@H](CC(C)C)C(=O)N[C@@H](CCCNC(=N)N)C(=O)N[C@@H](CCCNC(=N)N)C(=O)N[C@H](C(=O)NCC(=O)N[C@@H](CC(=O)O)C(=O)N[C@@H](CCC(=O)O)C(=O)N[C@@H](Cc1ccccc1)C(=O)N[C@@H](CC(N)=O)C(=O)N[C@@H](C)C(N)=O)[C@@H](C)CC)[C@@H](C)CC [P] (Ac-IAIAQELRRIGDEFNA-NH2),"binding affinity for Bcl-w ΔC29 compared to the linear 16-mer, in words",Bcl-w ΔC29,drop in binding
CC[C@H](C)[C@H](NC(C)=O)C(=O)N[C@@H](Cc1c[nH]c2ccccc12)C(=O)N[C@H](C(=O)N[C@@H](C)C(=O)N[C@@H](CCC(N)=O)C(=O)N[C@@H](CCC(=O)O)C(=O)N[C@@H](C)C(=O)N[C@@H](CCCNC(=N)N)C(=O)N[C@@H](CCCNC(=N)N)C(=O)N[C@H](C(=O)NCC(=O)N[C@@H](CC(=O)O)C(=O)N[C@@H](CCC(=O)O)C(=O)N[C@@H](Cc1ccccc1)C(=O)N[C@@H](CC(N)=O)C(=O)N[C@@H](C)C(N)=O)[C@@H](C)CC)[C@@H](C)CC [Peptide J] (Ac-IWIAQEARRIGDEFNA-NH2),decrease in binding affinity,Bcl-w ΔC29,about 1000 fold
Peptide T (linear) Ac-IWIAQELCitCitIGDEFNA-NH2,IC50,[2],20 nM
CC[C@H](C)[C@H](NC(C)=O)C(=O)N[C@@H](Cc1c[nH]c2ccccc12)C(=O)N[C@@H](C)C(=O)N[C@@H](C)C(=O)N[C@@H](CCC(N)=O)C(=O)N[C@@H](CCC(=O)O)C(=O)N[C@@H](CC(C)C)C(=O)N[C@@H](CCCNC(=N)N)C(=O)N[C@@H](CCCNC(=N)N)C(=O)N[C@H](C(=O)NCC(=O)N[C@@H](CC(=O)O)C(=O)N[C@@H](CCC(=O)O)C(=O)N[C@@H](Cc1ccccc1)C(=O)N[C@@H](CC(N)=O)C(=O)N[C@@H](C)C(N)=O)[C@@H](C)CC [Peptide I] (Ac-IWAAQELRRIGDEFNA-NH2),"binding affinity for Bcl-w ΔC29 compared to the linear 16-mer, in words",Bcl-w ΔC29,slight decrease in binding affinity
same,decrease in binding affinity,Bcl-w ΔC29,100 fold
CC[C@H](C)[C@H](NC(C)=O)C(=O)N[C@@H](Cc1c[nH]c2ccccc12)C(=O)N[C@H](C(=O)N[C@@H](C)C(=O)N[C@@H](CCC(N)=O)C(=O)N[C@@H](CCC(=O)O)C(=O)N[C@@H](CC(C)C)C(=O)N[C@@H](CCCNC(=N)N)C(=O)N[C@@H](CCCNC(=N)N)C(=O)N[C@H](C(=O)NCC(=O)N[C@@H](CC(=O)O)C(=O)N[C@@H](CCC(=O)O)C(=O)N[C@@H](Cc1ccccc1)C(=O)N[C@@H](CC(N)=O)C(=O)N[C@@H](CC(N)=O)C(N)=O)[C@@H](C)CC)[C@@H](C)CC [Peptide U] (Ac-IWIAQELRRIGDEFNN-NH2),decrease in binding affinity,Bcl-w ΔC29,two-fold
Peptide G (constrained) Ac-QAIAQZLRRIGDZFNA-NH2,IC50,[2],2.4 nM
CC[C@H](C)[C@H](NC(C)=O)C(=O)N[C@@H](Cc1ccccc1)C(=O)N[C@H](C(=O)N[C@@H](C)C(=O)N[C@@H](CCC(N)=O)C(=O)N[C@@H](CCC(=O)O)C(=O)N[C@@H](CC(C)C)C(=O)N[C@@H](CCCNC(=N)N)C(=O)N[C@@H](CCCNC(=N)N)C(=O)N[C@H](C(=O)NCC(=O)N[C@@H](CC(=O)O)C(=O)N[C@@H](CCC(=O)O)C(=O)N[C@@H](Cc1ccccc1)C(=O)N[C@@H](CC(N)=O)C(=O)N[C@@H](C)C(N)=O)[C@@H](C)CC)[C@@H](C)CC [N] (Ac-IFIAQELRRIGDEFNA-NH2),"binding affinity for Bcl-w ΔC29 compared to the linear 16-mer, in words",Bcl-w ΔC29,drop in binding
CC[C@H](C)[C@H](NC(C)=O)C(=O)N[C@@H](Cc1c[nH]c2ccccc12)C(=O)N[C@H](C(=O)N[C@@H](C)C(=O)N[C@@H](CCC(N)=O)C(=O)N[C@@H](CCC(=O)O)C(=O)N[C@@H](CC(C)C)C(=O)N[C@@H](CCCNC(=N)N)C(=O)N[C@@H](CCCNC(=N)N)C(=O)N[C@H](C(=O)NCC(=O)N[C@@H](CC(=O)O)C(=O)N[C@@H](CCC(=O)O)C(=O)N[C@@H](C)C(=O)N[C@@H](CC(N)=O)C(=O)N[C@@H](C)C(N)=O)[C@@H](C)CC)[C@@H](C)CC [Peptide L] (Ac-IWIAQELRRIGDEANA-NH2),decrease in binding affinity,Bcl-w ΔC29,"1,000 fold"
CC[C@H](C)[C@H](NC(C)=O)C(=O)N[C@@H](Cc1c[nH]c2ccccc12)C(=O)N[C@H](C(=O)N[C@@H](C)C(=O)N[C@@H](CCC(N)=O)C(=O)N[C@@H](CCC(=O)O)C(=O)N[C@@H](CC(C)C)C(=O)N[C@@H](CCCNC(=N)N)C(=O)N[C@@H](CCCNC(=N)N)C(=O)N[C@H](C(=O)NCC(=O)N[C@@H](CC(=O)O)C(=O)N[C@@H](CCC(=O)O)C(=O)N[C@@H](Cc1ccccc1)C(=O)N[C@@H](C)C(=O)N[C@@H](C)C(N)=O)[C@@H](C)CC)[C@@H](C)CC [Peptide S] (Ac-IWIAQELRRIGDEFAA-NH2),"binding affinity for Bcl-w ΔC29 compared to the linear 16-mer, in words",Bcl-w ΔC29,"only slight, if any, loss of binding affinity"
Ac-IAIAQELRRIGDEFNA-NH2 [Peptide P (linear) Ac-…-NH2],IC50,[2],42 nM
Ac-REIGAQLRRMADDLNA-NH2 [Puma peptide Ac-…-NH2],IC50,[2],52 nM
Ac-IFIAQELRRIGDEFNA-NH2 [Peptide N (linear) Ac-…-NH2],IC50,[2],11 nM
Ac-IWIAQELRRAGDEFNA-NH2 [Peptide K (linear) Ac-…-NH2],IC50,[2],7.3 nM
same,fold decrease in binding affinity against the linear 16-mer,[3],3 fold
Ac-IWIAQEARRIGDEFNA-NH2 [Peptide J (linear) Ac-…-NH2],IC50,[2],3700 nM
same,fold decrease in binding affinity against the linear 16-mer,[3],1000 fold
Ac-IWIAQELRRIGDEFAN-NH2 [Peptide R (linear) Ac-…-NH2],IC50,[2],12 nM
same,fold decrease in affinity against the linear 16-mer,[3],4 to 5 fold
Ac-IWIAQELRRIGDEFNN-NH2 [Peptide U (linear) Ac-…-NH2],IC50,[2],5.8 nM
same,fold loss of binding affinity against the linear 16-mer,[3],2 fold
Ac-IWAAQEARRAGDEANA-NH2 [Peptide M (linear) Ac-…-NH2],IC50,[2],64000 nM
same,fold decrease in binding affinity against the linear 16-mer,[3],25000 fold
Ac-VQIARKLQAIADQFHR-NH2 [Bmf peptide Ac-…-NH2],IC50,[2],0.25 nM
Ac-IWIAQQLRRIGDQFNA-NH2 [Peptide H (linear) Ac-…-NH2],IC50,[2],3.3 nM
Ac-IWIAQELRRIGDEFAA-NH2 [Peptide S (linear) Ac-…-NH2],IC50,[2],3.3 nM
Ac-IWAAQELRRIGDEFNA-NH2 [Peptide I (linear) Ac-…-NH2],IC50,[2],360 nM
same,fold decrease in binding affinity against the linear 16-mer,[3],100 fold
Ac-IWIAQELRRIGDEANA-NH2 [Peptide L (linear) Ac-…-NH2],IC50,[2],3500 nM
same,fold decrease in binding affinity against the linear 16-mer,[3],1000 fold
Ac-IRIAQELRRIGDEFNA-NH2 [Peptide Q (linear) Ac-…-NH2],IC50,[2],17 nM
